Blank lines part the entries; values can stand above or below the molecule they belong to.
How the values were obtained:
[1] = biological target: Wild-type recombinant human NGAL monomer expressed in CHO cells (human) (UniProt P80188); assay: … sandwich CMIA, capture HYB 211-01, detection acridinium-HYB 211-02; curve fit with monomer calibrators; target 250 ng/mL
[2] = biological target: Wild-type recombinant human NGAL dimer expressed in CHO cells (human) (UniProt P80188); assay: … sandwich CMIA, capture HYB 211-01, detection acridinium-HYB 211-02; NGAL 250 ng/mL
[3] = biological target: Wild-type recombinant human NGAL dimer calibrators treated with DTT (human) (UniProt P80188); assay: as above
[4] = biological target: Native NGAL purchased from Diagnostics Development (Uppsala, Sweden), non-reduced (UniProt P80188); assay: as above
[5] = biological target: Wild-type recombinant human NGAL monomer expressed in CHO cells (human) (UniProt P80188); assay: as above
[6] = biological target: Wild-type recombinant human NGAL dimer expressed in CHO cells (human) (UniProt P80188); assay: … sandwich CMIA, capture HYB 211-01, detection acridinium-HYB 211-02; calibrator B, NGAL 5 ng/mL
[7] = biological target: Wild-type recombinant human NGAL dimer calibrators treated with DTT (human) (UniProt P80188); assay: as above
[8] = biological target: Wild-type recombinant human NGAL monomer expressed in CHO cells (human) (UniProt P80188); assay: as above
[9] = biological target: Native NGAL purchased from Diagnostics Development (Uppsala, Sweden), non-reduced (UniProt P80188); assay: … sandwich CMIA, capture HYB 211-01, detection acridinium-HYB 211-02; non-reduced control sample
[10] = biological target: Wild-type recombinant human NGAL dimer expressed in CHO cells (human) (UniProt P80188); assay: … sandwich CMIA, capture HYB 211-01, detection acridinium-HYB 211-02; curve fit with monomer calibrators; target 5 ng/mL
[11] = biological target: Wild-type recombinant human NGAL dimer calibrators treated with DTT (human) (UniProt P80188); assay: as above
[12] = biological target: Wild-type recombinant human NGAL monomer expressed in CHO cells (human) (UniProt P80188); assay: as above
[13] = biological target: Wild-type recombinant human NGAL dimer calibrators treated with DTT (human) (UniProt P80188); assay: … sandwich CMIA, capture HYB 211-01, detection acridinium-HYB 211-02; DTT-treated against untreated dimer calibrator; target 600 ng/mL
[14] = biological target: Wild-type recombinant human NGAL dimer expressed in CHO cells (human) (UniProt P80188); assay: … sandwich CMIA, capture HYB 211-01, detection acridinium-HYB 211-02; curve fit with monomer calibrators; target 50 ng/mL
[15] = biological target: Wild-type recombinant human NGAL dimer calibrators treated with DTT (human) (UniProt P80188); assay: as above
[16] = biological target: Wild-type recombinant human NGAL monomer expressed in CHO cells (human) (UniProt P80188); assay: as above
[17] = biological target: Wild-type recombinant human NGAL dimer expressed in CHO cells (human) (UniProt P80188); assay: … sandwich CMIA, capture 1-2322-455, detection acridinium-1-903-430; NGAL 600 ng/mL
[18] = biological target: Wild-type recombinant human NGAL monomer expressed in CHO cells (human) (UniProt P80188); assay: as above
[19] = biological target: Wild-type recombinant human NGAL monomer expressed in CHO cells (human) (UniProt P80188); assay: … sandwich CMIA, capture 1-2322-455, detection acridinium-1-903-430; monomer calibrator plus TCEP; NGAL 50 ng/mL
[20] = biological target: Wild-type recombinant human NGAL dimer calibrators with TCEP in the reaction mixture (human) (UniProt P80188); assay: … sandwich CMIA, capture 1-2322-455, detection acridinium-1-903-430; TCEP in reaction; NGAL 50 ng/mL
[21] = biological target: Wild-type recombinant human NGAL dimer expressed in CHO cells (human) (UniProt P80188); assay: … sandwich CMIA, capture 1-2322-455, detection acridinium-1-903-430; NGAL 250 ng/mL
[22] = biological target: Wild-type recombinant human NGAL monomer expressed in CHO cells (human) (UniProt P80188); assay: as above
[23] = biological target: Wild-type recombinant human NGAL dimer expressed in CHO cells (human) (UniProt P80188); assay: … sandwich CMIA, capture 1-2322-455, detection acridinium-1-903-430; NGAL Dimer Low, 150 ng/mL dimer calibrator
[24] = biological target: Wild-type recombinant human NGAL dimer calibrators with TCEP in the reaction mixture (human) (UniProt P80188); assay: … sandwich CMIA, capture 1-2322-455, detection acridinium-1-903-430; TCEP in reaction; NGAL 1000 ng/mL
[25] = biological target: Wild-type recombinant human NGAL dimer calibrators with TCEP in the reaction mixture (human) (UniProt P80188); assay: … sandwich CMIA, capture 1-2322-455, detection acridinium-1-903-430; TCEP in reaction; curve fit with monomer calibrators; target 1000 ng/mL

- Curve Fit Results [1]: 251 ng/mL
- RLUs [2]: 142000 RLUs
- RLUs [3]: 378000 RLUs
- RLUs [4]: 620000 RLUs
- RLUs [5]: 396000 RLUs
- RLUs [6]: 4050 RLUs
- RLUs [7]: 11400 RLUs
- RLUs [8]: 12000 RLUs
- NGAL concentration detected [9]: 13.7 ng/mL
- Curve Fit Results [10]: 1.4 ng/mL
- Curve Fit Results [11]: 4.7 ng/mL
- Curve Fit Results [12]: 5.1 ng/mL
- % Increase due to DTT [13]: 256%
- Curve Fit Results [14]: 14.1 ng/mL
- Curve Fit Results [15]: 49 ng/mL
- Curve Fit Results [16]: 49.5 ng/mL
Molecule: anti-NGAL antibody HYB 211-01 from AntibodyShop A/S, Gentofte, Denmark

- RLUs [17]: 680000 RLUs
- RLUs [18]: 1.51e+06 RLUs
- RLUs [19]: 241000 RLUs
- RLUs [20]: 132000 RLUs
- RLUs [21]: 336000 RLUs
- RLUs [22]: 900000 RLUs
- NGAL concentration detected [23]: 33.9 ng/mL
- RLUs [24]: 1.37e+06 RLUs
- Curve Fit Results [25]: 497 ng/mL
B1: antibody produced by murine hybridoma cell line 1-2322-455 having ATCC Accession No. PTA-8024 (antibody, V domains shown)
VH: EVQLVESGGGLVQPGGSLKLSCAASGFTFNNYYMSWVRQTPERRLEWVAYISSSGGSTYYSDSVRGRFTISRDTARNTLYLQMTSLKSEDTAMYYCARHFGDYSYFDYWGQGTTLTVSS
VL: DIQMTQSPASLSASVGETVTITCRASENFYSYLAWYQQKQGKSPQLLVYNAKTLAEGVPSRFSGSGSGTQFSLKINSLQPEDFGTYYCQHHYDIPLTFGAGTKLELKR

Source: patent EP2225268B1
